Results on one molecule are retold here after paper PMC9320966 (Arthritis & Rheumatology (Hoboken, N.j.), 2022).

In the experiment the target is COMP in mouse joint cartilage (Mus musculus, UniProt Q9R0G6). The experiment in a line: immunostaining of cells or tissue.
Sequence of COMP in mouse joint cartilage (Q9R0G6 20-755): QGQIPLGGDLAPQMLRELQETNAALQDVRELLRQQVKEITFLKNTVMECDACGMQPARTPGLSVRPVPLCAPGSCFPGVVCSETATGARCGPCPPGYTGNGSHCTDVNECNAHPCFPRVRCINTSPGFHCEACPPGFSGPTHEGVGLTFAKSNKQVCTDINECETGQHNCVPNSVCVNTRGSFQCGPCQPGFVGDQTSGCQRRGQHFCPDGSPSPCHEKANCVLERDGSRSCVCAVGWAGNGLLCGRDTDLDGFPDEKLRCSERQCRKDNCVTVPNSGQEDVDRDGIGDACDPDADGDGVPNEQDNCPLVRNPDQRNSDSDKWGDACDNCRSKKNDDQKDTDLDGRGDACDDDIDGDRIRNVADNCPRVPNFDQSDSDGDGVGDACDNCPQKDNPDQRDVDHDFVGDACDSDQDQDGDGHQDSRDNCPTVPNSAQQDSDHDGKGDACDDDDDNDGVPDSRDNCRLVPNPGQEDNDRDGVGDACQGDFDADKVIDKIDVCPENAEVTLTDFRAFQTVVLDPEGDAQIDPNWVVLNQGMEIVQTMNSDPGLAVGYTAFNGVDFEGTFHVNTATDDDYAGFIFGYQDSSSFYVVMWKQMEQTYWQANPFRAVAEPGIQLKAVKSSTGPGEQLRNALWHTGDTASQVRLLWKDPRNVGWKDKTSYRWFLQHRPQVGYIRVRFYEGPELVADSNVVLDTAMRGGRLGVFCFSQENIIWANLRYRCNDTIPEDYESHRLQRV

B1: murine monoclonal anti-COMP antibody 15A11 (antibody, V domains shown)
VH: QVQLQQSGAELAKPGASVNLSCKASGYTFTNYWVHWVKQRPGQGLEWIGYINPSNTYISYNQQFKDKATLTADKSSSTAYMQLSRLTYEDSSVYYCARGGFFYDYDVWYFDVWGTGTTVTVSS
VL: DVLMTQIPLSLPVSLGDQASISCRSSQNIVHSNGNTYLEWYLQKPGQSPKLLIYKVSNRFSGVPDRFSGSGSGTDFTLKISRVEAEDLGVYYCFQGSHVPFTFGSGTKLEIK
On to B1, for which the binding result is reported as “binds”.
